Where “and” joins values, the source holds several entries; their conditions need not be identical. Equal entries are not always repeated.
Tests used:
Mbnl1 protein = assay: Western blot of Mbnl1 in mouse muscle; format: in vivo; parameters: scale not given here; details: HSALR mice, quadriceps, same value given for every mouse of a treatment group
Description: A 96-well plate QDB assay was used[87] to determine MBNL1 protein levels in all replicates and concentrations of each ON tested. This technique allows for high-throughput screening of low protein concentration samples over conventional western blot (WB) (Figure S9).[88] Cell samples (1 μg/well) and mice samples (2 μg/well) were prepared with 4× loading buffer, denatured (100°C for 5 min) and loaded in QDB plates (Quanticision Diagnostics, Research Triangle Park, NC). For the quantification of in vitro samples, the QDB was performed exactly as described in Moreno et al.[87] Each cell sample was loaded in quadruplicate in two different plates; one was used to detect MBNL1 (it was incubated overnight with primary mouse anti-MBNL1 [1:1,000, Abcam, ab77017]) and the other for GAPDH (it was incubated overnight with primary mouse anti-GAPDH [1:500, Santa Cruz, clone G-9]), which was used here as an endogenous control. For Mbnl1 quantification in mouse muscle tissues, we implemented the following modifications: each sample was loaded in quadruplicate on three different plates. One was used to detect Mbnl1 with a mouse MB1a(4A8) antibody (DSHB, Iowa City, IA) using a 1:200 dilution. A second plate was used to quantify tubulin (endogenous normalization control) with a mouse 12G10 antibody (DSHB) using a 1:1,000 dilution. A third plate was used to quantify IgG signal (negative control to subtract background) using an anti-mouse-IgG secondary antibody (Sigma-Aldrich) at 1:3,500 dilution. This subtraction was necessary due to an unspecific IgG signal could be observed in mouse samples (Figures S10A–S10D). All primary antibodies were detected using horseradish peroxidase-conjugated anti-mouse-IgG secondary antibody (1:5,000 for the anti-mouse plate, 1:2,000 for cell plates, and 1:3,500 for mouse plates [Sigma-Aldrich, MO]). Immunoreactive bands were detected using Pierce ECL Western reagent (Thermo Scientific), and luminescence levels were determined using an Infinite M200 PRO plate reader (Tecan). The validity of this correction for QDB quantification of mouse samples was confirmed by performing a series of experiments determining both the window of linearity of the assay (2–5 μg protein, Figures S10A–S10B) and the comparison with data obtained by WB in a subset of samples (Figures S10E–S10H), obtaining a correlation of 0.9927 for MBNL1 and 0.8678 for tubulin (in the case of quadriceps), and 0.9821 for MBNL1 and 0.9699 for tubulin (in gastrocnemius). For WB assay in quadriceps (Figure S10I), samples were loaded in pools of each treatment to have a representative WB of all the treatments tested. WB assay was performed as described previously.[20]

[1] = Bodyweight-normalized spleen weight and body weight; format: in vivo, mouse
From the text: Mouse handling and experimental procedures followed the European law regarding laboratory animal care and experimentation (2003/65/C.E.) and were approved by Conselleria de Agricultura, […] (reference no. A1539961490857). We used homozygous transgenic HSA^LR (line 20 b) mice,[90] which were kindly provided by Dr Thornton (Rochester, NY) and were housed and bred in our animal facility. […] The mice were randomly allocated to the different treatments as follows: in each cage, each mouse was ear-marked as it was taken out, and each mouse was then assigned to a different treatment. Animals were injected biweekly intravenously with 150 μL of 1× PBS vehicle (controls; […] Mice were sacrificed 45 days after the first injection and the tissues of interest were frozen in liquid nitrogen for the molecular and histological assays. All the mice used in this study ranged from 5 to 5.5 months of age and all were males.

[2] = ELISA determination of antimiR conjugate concentrations in tissues; format: in vivo, mouse; details: HSALR mice, 9.2 mg/kg (mean) i.v. x3, day 45; for CPP-PMO concentration (pM), Brain / CPP-PMO concentration (pM), Gastrocnemius / CPP-PMO concentration (pM), Heart / CPP-PMO concentration (pM), Kidney / CPP-PMO concentration (pM), Liver / CPP-PMO concentration (pM), Quadriceps: hybridization ELISA, background subtracted, individual mice; for CPP-PMO levels in tissues, in words: ELISA in kidney, liver, heart, quadriceps, gastrocnemius, brain
Description: Custom ELISA-based measurements of antimiR conjugate concentrations in brain, kidney, liver, heart, gastrocnemius, and quadriceps from treated HSA^LR mice were performed as described in Burki et al.,[89] using the following phosphorothioate probes: for miR-218 (5′ → 3′) [DIG] T∗T∗G∗T∗G∗C∗T∗TGATCTA∗A∗C∗C∗A∗T∗G∗T [BIO]; for miR-23b (5′ → 3′) [BIO] A∗T∗C∗A∗C∗A∗T∗TGCCAGG∗G∗A∗T∗T∗A∗C∗C [DiG] double-labeled with digoxigenin (DIG) and biotin (BIO). In all cases, a control sample was used to subtract the background (HSA^LR treated with PBS for 9b2 and 9b2-KC ONs; HSA^LR treated with Scramble for 6aKC ONs).
Mouse handling and experimental procedures followed the European law regarding laboratory animal care and experimentation (2003/65/C.E.) and were approved by Conselleria de Agricultura, Generalitat Valenciana (reference no. A1539961490857). We used homozygous transgenic HSA^LR (line 20 b) mice,[90] which were kindly provided by Dr Thornton (Rochester, NY) and were housed and bred in our animal facility. Experimental groups were FVB as healthy control and HSA^LR treated with a scrambled ON (SC) and PBS as negative controls, and HSA^LR mice treated with all six experimental CPP-PMOs. The mice were randomly allocated to the different treatments as follows: in each cage, each mouse was ear-marked as it was taken out, and each mouse was then assigned to a different treatment. Animals were injected biweekly intravenously with 150 μL of 1× PBS vehicle (controls; HSA^LR n = 7 and FVB n = 6) or 150 μL of a solution 1.875 mg/mL of the test CPP-PMOs corresponding to an average dose of 9.2 mg/kg (HSA^LR mice: SC n = 5, 9b2-218 n = 5, 9b2-23b n = 5, […] n = 5, […] n = 5, 6aKC-218 n = 5, and 6aKC-23b n = 5; see Table S6 for precise dosing). Mice were sacrificed 45 days after the first injection and the tissues of interest were frozen in liquid nitrogen for the molecular and histological assays. All the mice used in this study ranged from 5 to 5.5 months of age and all were males.

Substance | Mbnl1 Quads, WB assay (Mbnl1 protein; protein) | Mbnl1 Quads, WB assay (Mbnl1 protein; western blot) | Weight ([1]; mouse, in vivo, iv, 9.2 mg/kg) | CPP-PMO concentration (pM), Brain ([2]; 9.2 mg/kg) | CPP-PMO concentration (pM), Gastrocnemius ([2]; 9.2 mg/kg) | CPP-PMO concentration (pM), Heart ([2]; 9.2 mg/kg) | CPP-PMO concentration (pM), Kidney ([2]; 9.2 mg/kg) | CPP-PMO concentration (pM), Liver ([2]; 9.2 mg/kg) | CPP-PMO concentration (pM), Quadriceps ([2]; 9.2 mg/kg) | further results
9b2-23b (antisense GGUAAUCCCUGGCAAUGUGAU; all phosphorodiamidate morpholino (PMO), T or U not given here; Pip9b2 peptide conjugated) | 1.46 | 1.46 | 32,78 ± 4,285 g | 84.29 pM and 5.89 pM and 3.33 pM | 1173.05 pM and 672.99 pM and 96.96 pM | 458.72 pM and 70.02 pM and 540.73 pM | 417329.90 pM and 445161.13 pM and 596014.00 pM | 14705.39 pM and 13935.38 pM and 16995.86 pM | 664.60 pM and 444.65 pM and 237.24 pM | Weight (g) W.0 ([1]; mouse, in vivo): 28.7 g; Weight (g) W.1 ([1]; mouse, in vivo): 29.2 g; Weight (g) W.2 ([1]; mouse, in vivo): 28.6 g; Weight (g) W.3 ([1]; mouse, in vivo): 29 g; Weight (g) W.4 ([1]; mouse, in vivo): 29.1 g; Weight (g) W.5 ([1]; mouse, in vivo): 29.4 g; Weight (g) W.6 ([1]; mouse, in vivo): 29.1 g
6aKC-218 (antisense ACAUGGUUAGAUCAAGCACAA; all phosphorodiamidate morpholino (PMO), T or U not given here; Pip6aKC peptide conjugated) | 1.02 |  | 39,02 ± 1,460 g |  | 3105.34 pM and 4126.64 pM | 220.63 pM and 8031.17 pM and 1672.26 pM | 807303.00 pM and 163863.50 pM and 282189.80 pM and 288519.00 pM and 763252.10 pM | 11820.61 pM and 1738.96 pM and 6547.20 pM and 6702.77 pM and 6452.86 pM | 56.37 pM and 3449.73 pM and 180.55 pM | CPP-PMO concentration (pM), Brain [2]: 5.54 pM
TCTTACCTCAGTTACAATTTA-Pip9b2 [Scramble, reference compound] | 1.00 |  |  |  |  |  |  |  |  | Spleen weight ratio ([1]; HSALR mice, 9.2 mg/kg (mean) i.v. x3, day 45, bodyweight-normalized, mean ± sd, n = 5): 0,0029 ± 0,0005; Weight ([1]; HSALR mice, 9.2 mg/kg (mean) i.v. x3, body weight, mean ± sd, n = 5): 37,36 ± 2,928 g
6aKC-23b (antisense GGUAAUCCCUGGCAAUGUGAU; all phosphorodiamidate morpholino (PMO), T or U not given here; Pip6aKC peptide conjugated) |  | 1.13 | 39.84 ± 3,561 g | 0.83 pM and 9.49 pM and 11.43 pM and 25.59 pM and 4.02 pM | 93.86 pM and 1846.67 pM and 1209.72 pM and 472.26 pM and 199.58 pM | 1789.14 pM and 954.01 pM and 1508.23 pM and 1701.45 pM | 174345.23 pM and 110334.18 pM and 239168.85 pM and 16740.44 pM and 230939.23 pM | 4615.98 pM and 9209.58 pM and 10333.80 pM and 76.40 pM and 8623.71 pM | 72.30 pM and 93.71 pM and 165.91 pM and 28.58 pM and 1.72 pM | 
9b2-218 (antisense ACAUGGUUAGAUCAAGCACAA; all phosphorodiamidate morpholino (PMO), T or U not given here; Pip9b2 peptide conjugated) | 1.58 |  | 30,76 ± 2,745 g | 33.45 pM and 18.40 pM and 128.86 pM | 504.97 pM and 1534.26 pM and 428.98 pM | 1166.04 pM and 1995.51 pM and 1662.31 pM | 348919.38 pM and 303314.43 pM and 726042.17 pM | 16959.56 pM and 11986.59 pM and 23535.44 pM | 482.70 pM and 1344.85 pM and 1437.67 pM | 
9b2KC-23b (antisense GGUAAUCCCUGGCAAUGUGAU; all phosphorodiamidate morpholino (PMO), T or U not given here; Pip9b2KC peptide conjugated) |  | 1.36 | 32,22 ± 5,551 g | 17.78 pM and 0.01 pM and 0.87 pM | 3.32 pM and 2.34 pM and 0.01 pM | 256.63 pM and 2.97 pM and 105.40 pM | 404860.30 pM and 2213436.59 pM and 1672927.68 pM | 113314.70 pM and 27707.42 pM and 93287.30 pM | 127.62 pM and 457.08 pM and 0.82 pM | CPP-PMO levels in tissues, in words ([2]; 9.2 mg/kg): lower muscle levels; CPP-PMO levels in tissues, in words ([2]; listed as 9bKC-23b, 9.2 mg/kg): accumulation in liver was higher compared with our target tissues
9b2KC-218 (antisense ACAUGGUUAGAUCAAGCACAA; all phosphorodiamidate morpholino (PMO), T or U not given here; Pip9b2KC peptide conjugated) | 1.44 |  | 31,28 ± 4,11 g | 6.68 pM and 4.47 pM and 1017.83 pM | 726.85 pM and 1065.08 pM and 788.22 pM | 1724.69 pM and 184.66 pM and 108.67 pM | 1320762.73 pM and 1455590.50 pM and 1409556.69 pM | 12456.78 pM and 13391.72 pM and 5588.09 pM | 37.03 pM and 1605.97 pM and 358.44 pM | 

From PMC10514136, “Peptide-conjugated antimiRs improve myotonic dystrophy type 1 phenotypes by promoting endogenous MBNL1 expression” (Molecular Therapy. Nucleic Acids, 2023)
